The record followed here is US20120183532A1.

For the experiment, the target named is IL-1β receptor of the hepatic sinusoidal endothelium (HSE) cells (mouse) (UniProt P13504). The experiment in a line: cell-based or functional assay.
UniProt P13504, sequence (P13504 20-576): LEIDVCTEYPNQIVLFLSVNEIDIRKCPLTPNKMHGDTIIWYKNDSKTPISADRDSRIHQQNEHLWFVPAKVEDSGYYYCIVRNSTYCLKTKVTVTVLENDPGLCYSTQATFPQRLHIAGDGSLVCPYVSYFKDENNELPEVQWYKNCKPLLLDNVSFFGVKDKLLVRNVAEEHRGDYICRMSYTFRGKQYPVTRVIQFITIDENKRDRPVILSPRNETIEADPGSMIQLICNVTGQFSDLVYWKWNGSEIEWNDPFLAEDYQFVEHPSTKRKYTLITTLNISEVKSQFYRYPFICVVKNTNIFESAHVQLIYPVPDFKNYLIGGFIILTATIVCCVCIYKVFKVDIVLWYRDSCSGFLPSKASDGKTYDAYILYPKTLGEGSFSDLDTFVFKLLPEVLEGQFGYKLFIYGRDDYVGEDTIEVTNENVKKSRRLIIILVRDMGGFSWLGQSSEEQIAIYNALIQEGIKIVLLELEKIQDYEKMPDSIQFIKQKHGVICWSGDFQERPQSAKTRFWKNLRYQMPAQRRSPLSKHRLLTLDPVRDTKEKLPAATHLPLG

Substance “recombinant C. albicans Kre9 (CaKre9) protein expressed in E. coli, fused to an HSV tag and 6 histidine residues (from UniProt O74226 22-271)” gave an increase of the tumor adhesion (B16M cells) to the HSE with respect to the control above 150%.
